According to US7115260B2, “Interleukin-1β converting enzyme like apoptotic protease-6” (Human Genome Sciences, Inc., priority 1996, dated 2006):
Where a chain is given by its changes, count along the chain named. Peptide text beside a SMILES is read from it. * marks the point of attachment. Cbz = O=C(OCc1ccccc1)*; CH2F = FC*

T1: pro-ICE LAP-6 (Homo sapiens, UniProt P55211, A28V/A96G/Q221R)
T1 construct: made in house; host or cells: cell-free in vitro transcription/translation, TNT kit (Promega)
T1 sequence (P55211 1-416 A28V/A96G/Q221R): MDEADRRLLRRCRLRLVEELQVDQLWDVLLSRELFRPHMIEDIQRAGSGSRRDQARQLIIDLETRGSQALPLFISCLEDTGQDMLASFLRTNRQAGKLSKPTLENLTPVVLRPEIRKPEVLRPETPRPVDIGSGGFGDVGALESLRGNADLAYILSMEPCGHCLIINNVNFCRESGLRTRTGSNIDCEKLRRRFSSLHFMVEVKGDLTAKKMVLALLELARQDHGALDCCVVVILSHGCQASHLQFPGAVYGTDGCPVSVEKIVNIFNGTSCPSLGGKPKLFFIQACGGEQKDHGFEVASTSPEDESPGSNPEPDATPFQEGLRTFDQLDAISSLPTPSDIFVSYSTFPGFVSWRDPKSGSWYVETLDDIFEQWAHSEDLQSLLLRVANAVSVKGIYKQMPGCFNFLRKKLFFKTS

T2: pro-Yama (Homo sapiens, UniProt P42574)
T2 construct: His6; made in house; host or cells: cell-free in vitro transcription/translation, TNT kit (Promega)
T2 sequence (P42574 1-277): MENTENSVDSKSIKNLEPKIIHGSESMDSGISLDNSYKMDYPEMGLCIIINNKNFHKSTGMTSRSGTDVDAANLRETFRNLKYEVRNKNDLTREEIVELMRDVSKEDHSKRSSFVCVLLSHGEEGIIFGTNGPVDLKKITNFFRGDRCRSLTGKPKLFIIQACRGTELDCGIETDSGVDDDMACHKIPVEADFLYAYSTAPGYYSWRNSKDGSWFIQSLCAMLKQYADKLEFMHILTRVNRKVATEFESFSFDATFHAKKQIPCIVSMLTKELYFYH

T3: ICE LAP-6 (Homo sapiens, UniProt P55211, A28V/A96G/Q221R)
T3 construct: transiently transfected with an expression vector encoding the full-length ICE LAP-6 protein (ICE LAP-6-flag); expressed in transfected cells; host or cells: MCF7 breast carcinoma cells, pcDNA3 vector
T3 sequence (P55211 1-416 A28V/A96G/Q221R): T1 sequence (P55211 1-416 A28V/A96G/Q221R)

B1: ICE LAP-6: novel human member of the ICE/ced-3 family of cysteine proteases, active site QACGG, predicted 45.8 kD (protein)
chain: MDEADRRLLRRCRLRLVEELQVDQLWDVLLSRELFRPHMIEDIQRAGSGSRRDQARQLIIDLETRGSQALPLFISCLEDTGQDMLASFLRTNRQAGKLSKPTLENLTPVVLRPEIRKPEVLRPETPRPVDIGSGGFGDVGALESLRGNADLAYILSMEPCGHCLIINNVNFCRESGLRTRTGSNIDCEKLRRRFSSLHFMVEVKGDLTAKKMVLALLELARQDHGALDCCVVVILSHGCQASHLQFPGAVYGTDGCPVSVEKIVNIFNGTSCPSLGGKPKLFFIQACGGEQKDHGFEVASTSPEDESPGSNPEPDATPFQEGLRTFDQLDAISSLPTPSDIFVSYSTFPGFVSWRDPKSGSWYVETLDDIFEQWAHSEDLQSLLLRVANAVSVKGIYKQMPGCFNFLRKKLFFKTSHHHHHH
B2: ICE LAP-6 mt: mutant version of ICE LAP-6 with the catalytic cysteine residue (Cys286) altered to an alanine (protein, UniProt P55211 1-416, looked up, variant C287A)
chain: T1 sequence (P55211 1-416 A28V/A96G/Q221R) with V28A, G96A, R221Q, C287A
B3: Yama: ICE/Ced-3 family cysteine protease; p17 and p12 subunits derived from a 32 kDa proenzyme (protein)
chain: MENTENSVDSKSIKNLEPKIIHGSESMDSGISLDNSYKMDYPEMGLCIIINNKNFHKSTGMTSRSGTDVDAANLRETFRNLKYEVRNKNDLTREEIVELMRDVSKEDHSKRSSFVCVLLSHGEEGIIFGTNGPVDLKKITNFFRGDRCRSLTGKPKLFIIQACRGTELDCGIETDSGVDDDMACHKIPVEADFLYAYSTAPGYYSWRNSKDGSWFIQSLCAMLKQYADKLEFMHILTRVNRKVATEFESFSFDATFHAKKQIPCIVSMLTKELYFYHHHHHHH

What was measured:
[1] = target: T1, pro-ICE LAP-6; assay: Proteolytic activation of in vitro-translated pro-ICE LAP-6 by granzyme B; assay type: biochemical; conditions: 20 pmole granzyme B, 4 hours at 37° C., SDS-PAGE
[2] = target: T2, pro-Yama; assay: Proteolytic activation of in vitro-translated pro-Yama by granzyme B; assay type: biochemical; conditions: purified granzyme B
[3] = target: T3, ICE LAP-6; assay: Inhibition of ICE LAP-6 induced apoptosis in transfected MCF7 cells; assay type: cell-based; conditions: MCF7 cells transfected with ICE LAP-6-flag
Protocol: (§1) MCF7 breast carcinoma cells were transiently transfected as described previously (Chinnaiyan, A. M., et al (1995) Cell 81, 505–512). Briefly, 2.5×10^5 MCF7 cells were transfected with 0.25 μg of the reporter plasmid pCMV β-galactosidase plus 1 μg of test plasmid in 6-well tissue culture dishes using lipofectamine as per manufacturer's instructions. The transfection was carried out in 1 ml of Opti-MEM Minimal Media (GMBCO-BRL) and after 5 hours, 1 ml of serum-containing growth media was added. Two days later, the cells were fixed with 0.5% glutaraldehyde and stained with X-gal for 4 hours. Cells were visualized by phase-contrast microscopy. At least 300 β-galactosidase-positive cells were counted for each transfection (n=3) and identified as apoptotic or nonapoptotic based on morphological alterations typical of adherent cells undergoing apoptosis including becoming rounded, condensed, and detaching from the dish (Cohen, J. J. (1993) Immunology Today 14, 126–130). […] Samples were analyzed by immunoblotting with anti-PARP monoclonal antibody C-2-10 as described previously Tewari, M., et al. (1995) Cell 81, 801–809).
(§2) To study the functional role of ICE LAP-6, MCF7 breast carcinoma cells were transiently transfected with an expression vector encoding the full-length ICE LAP-6 protein (ICE LAP-6-flag) and subsequently assessed for apoptotic features. […]

[4] = system: PARP; assay: PARP cleavage by granzyme B-processed protease (anti-PARP immunoblot); assay type: biochemical; conditions: after granzyme B processing, anti-GraB added, 2 hours, 37° C.
Protocol: as §1, with “801–809). […]” for “801–809).”

[5] = system: MCF7 breast carcinoma cells; assay: Apoptosis assay in transiently transfected MCF7 cells; assay type: cell-based; conditions: transient transfection of expression vector, morphology of β-galactosidase-positive cells, two days
Protocol: as §1, §2

Row | Molecule | ability to cleave PARP [4] | induction of apoptosis / cell death on overexpression [5] | also measured
1 | granzyme B: secreted serine protease, effector of cytotoxic T cell-mediated apoptosis |  |  | proteolytic processing of pro-ICE LAP-6 [1]: proteolytically processed into 3 fragments; activation of Yama in vitro [2]: directly activates
2 | COC(=O)C[C@H](NC(=O)[C@H](C)NC(=O)[C@@H](NC(=O)OCc1ccccc1)C(C)C)C(=O)CF [z-VAD fmk] (Cbz-Val-Ala-Asp(OMe)-CH2F) |  |  | inhibition of ICE LAP-6 induced apoptosis [3]: inhibited
3 | B1 | active | caused cell death | 
4 | B2 |  | did not induce apoptotic changes | 
5 | B3 | active |  | 
